Target: LC3 (Microtubule-associated protein 1A/1B-light chain 3) (UniProt Q9GZQ8 1-120)
Test: ITC; 100 µM LC3 titrated into 10 µM PfUIS3; MicroCal ITC 200, 25 °C; 50 mM sodium phosphate, 150 mM NaCl, pH 6.5; one-site binding model
Conditions: both partners purified

B1: Plasmodium falciparum UIS3 (Upregulated in infective sporozoites 3) (natural protein)
chain: INKINLNKPIIENKNNVDVSIKRYNNFVDIARLSIQKHFEHLSNDQKDSHVNNMEYMQKFVQGLQENRNISLSKYQENKAVMDLKYHLQKVYANYLSQEEN
modifications: Construct limits are not given; the soluble domain is taken from PDB 2VWA, which the paper cites for PfUIS3. The His tag was removed with thrombin; the residual myc tag is left out.
Question: How did the Kd turn out when B1 was run?
Answer: The Kd was 2150 ± 121 nM.

Source: article PMC7677311, “Disrupting Plasmodium UIS3–host LC3 interaction with a small molecule causes parasite elimination from host cells” (Communications Biology, 2020)
